This passage reports Kd and stoichiometry N results from doi:10.1101/2023.06.19.545293.

The target of the test is ZnF domain of A. thaliana SPL5 (Ser60-Leu127) (A. thaliana) (UniProt Q9S758). In words: ITC. On the technique in general: In ITC the heat of successive injections is recorded.
Chain of ZnF domain of A. thaliana SPL5 (Ser60-Leu127) (A. thaliana) (Q9S758 60-127): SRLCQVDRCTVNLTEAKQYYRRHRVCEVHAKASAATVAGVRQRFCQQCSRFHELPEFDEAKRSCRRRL

Regarding “SAP05 (mature, Ala33-Lys135) of Aster Yellows phytoplasma strain Witches Broom (natural protein)”, the Kd – broadly, the equilibrium constant for the complex coming apart – was determined as 450 nM and the stoichiometry N (commonly the number of molecules, sites or subunits per partner or assembly) was 1.
